Measured values as given in paper PMC10663500, “High-throughput analysis system of interaction kinetics for data-driven antibody design” (Scientific Reports, 2023).
Substitutions are numbered along the chain they refer to.

B1: toripalimab Fab H.E52Y (Fab, V domains shown)
VH: QGQLVQSGAEVKKPGASVKVSCKASGYTFTDYEMHWVRQAPIHGLEWIGVIYSETGGTAYNQKFKGRVTITADKSTSTAYMELSSLRSEDTAVYYCAREGITTVATTYYWYFDVWGQGTTVTVSS
VL: DVVMTQSPLSLPVTLGQPASISCRSSQSIVHSNGNTYLEWYLQKPGQSPQLLIYKVSNRFSGVPDRFSGSGSGTDFTLKISRVEAEDVGVYYCFQGSHVPLTFGQGTKLEIK
notes: heavy chain of Sm3 with this change; numbers count from the chain's first residue; as the light chain of Sm3; source: Brevibacillus, culture supernatant (ammonium sulfate precipitate); not shown: 6xHis, C-terminal, kept; 6xHN, C-terminal, kept
B2: toripalimab Fab L.L101D (Fab, V domains shown)
VH: B1 VH with Y52E
VL: B1 VL with L101D
notes: as the heavy chain of Sm3; light chain of Sm3 with this change; numbers count from the chain's first residue; source: Brevibacillus, culture supernatant (ammonium sulfate precipitate); not shown: 6xHis, C-terminal, kept; 6xHN, C-terminal, kept
B3: toripalimab Fab L.P100N (Fab, V domains shown)
VH: B1 VH with Y52E
VL: B1 VL with P100N
notes: as for B2
B4: toripalimab Fab L.P100K (Fab, V domains shown)
VH: B1 VH with Y52E
VL: B1 VL with P100K
notes: as for B2
B5: toripalimab Fab L.P100Y (Fab, V domains shown)
VH: B1 VH with Y52E
VL: B1 VL with P100Y
notes: as for B2
B6: toripalimab Fab L.P100T (Fab, V domains shown)
VH: B1 VH with Y52E
VL: B1 VL with P100T
notes: as for B2
B7: toripalimab Fab H.S53Y (Fab, V domains shown)
VH: B1 VH with Y52E, S53Y
VL: B1 VL
notes: as for B1
B8: toripalimab Fab L.P100R (Fab, V domains shown)
VH: B1 VH with Y52E
VL: B1 VL with P100R
notes: as for B2
B9: toripalimab Fab L.P100G (Fab, V domains shown)
VH: B1 VH with Y52E
VL: B1 VL with P100G
notes: as for B2
B10: toripalimab Fab L.L101A (Fab, V domains shown)
VH: B1 VH with Y52E
VL: B1 VL with L101A
notes: as for B2
B11: toripalimab Fab L.P100M (Fab, V domains shown)
VH: B1 VH with Y52E
VL: B1 VL with P100M
notes: as for B2
B12: toripalimab Fab L.P100S (Fab, V domains shown)
VH: B1 VH with Y52E
VL: B1 VL with P100S
notes: as for B2
B13: toripalimab Fab L.P100D (Fab, V domains shown)
VH: B1 VH with Y52E
VL: B1 VL with P100D
notes: as for B2
B14: toripalimab Fab L.L101F (Fab, V domains shown)
VH: B1 VH with Y52E
VL: B1 VL with L101F
notes: as for B2
B15: toripalimab Fab L.P100Q (Fab, V domains shown)
VH: B1 VH with Y52E
VL: B1 VL with P100Q
notes: as for B2
B16: toripalimab Fab L.P100L (Fab, V domains shown)
VH: B1 VH with Y52E
VL: B1 VL with P100L
notes: as for B2
B17: toripalimab Fab L.P100E (Fab, V domains shown)
VH: B1 VH with Y52E
VL: B1 VL with P100E
notes: as for B2
B18: toripalimab Fab L.P100I (Fab, V domains shown)
VH: B1 VH with Y52E
VL: B1 VL with P100I
notes: as for B2
B19: toripalimab Fab L.P100V (Fab, V domains shown)
VH: B1 VH with Y52E
VL: B1 VL with P100V
notes: as for B2
B20: toripalimab Fab L.P100H (Fab, V domains shown)
VH: B1 VH with Y52E
VL: B1 VL with P100H
notes: as for B2
B21: toripalimab Fab L.P100W (Fab, V domains shown)
VH: B1 VH with Y52E
VL: B1 VL with P100W
notes: as for B2
B22: toripalimab Fab L.P100F (Fab, V domains shown)
VH: B1 VH with Y52E
VL: B1 VL with P100F
notes: as for B2
B23: toripalimab Fab L.L101E (Fab, V domains shown)
VH: B1 VH with Y52E
VL: B1 VL with L101E
notes: as for B2
B24: toripalimab Fab L.V99Y (Fab, V domains shown)
VH: B1 VH with Y52E
VL: B1 VL with V99Y
notes: as for B2
B25: toripalimab Fab L.P100A (Fab, V domains shown)
VH: B1 VH with Y52E
VL: B1 VL with P100A
notes: as for B2
B26: toripalimab Fab H.S53A (Fab, V domains shown)
VH: B1 VH with Y52E, S53A
VL: B1 VL
notes: as for B1

target: T1, human programmed cell death protein 1 (hPD-1) C93S (aa 24-167) (Homo sapiens, UniProt Q15116, C93S); assay: SPR; Carterra LSA; Fab from the ammonium sulfate precipitate of the culture supernatant immobilised on a NiHC200M chip; hPD-1 (1-1024 nM) or mPD-1-Fc (4-1024 nM) as analyte, fourfold dilution series, no regeneration; HBS-EP pH 7.4, 25 °C; medians over the spots of a construct, KD = koff/kon; conditions: one partner purified
T1 construct: made as a fusion with a TEV site and human Fc; the Fc was cut off with TEV protease; source: Expi293F, purified (Protein A, TEV cleavage of Fc, SEC; monomer fractions); not shown: Fc (human), C-terminal, cleaved
How it was run: (§1)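 Fabs from Brevibacillus culture supernatants were ammonium sulfate-precipitated, redissolved in HBS-EP and captured in duplicate on a NiHC200M chip (Carterra LSA, 25 °C). Human PD-1 (1–1024 nM) or mouse PD-1-Fc (4–1024 nM) flowed as fourfold series without regeneration, with 10 min association and 5 min dissociation; unconfirmed binders were set to kon 10^3 […], koff 10^−2 s^−1. Rates came from kdka model fits (slow- or fast-dissociation settings, best fit); KD is koff/kon from per-construct medians.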

T1 sequence (Q15116 24-167 C93S): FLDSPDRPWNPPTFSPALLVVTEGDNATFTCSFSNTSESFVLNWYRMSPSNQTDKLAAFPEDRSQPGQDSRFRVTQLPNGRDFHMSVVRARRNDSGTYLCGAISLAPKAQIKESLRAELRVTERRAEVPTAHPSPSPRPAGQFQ

Binder | Kd [µM] | koff [s⁻¹] | kon [M⁻¹ s⁻¹]
B1 | 0.0494 | 0.000629 | 12700
B2 | < 0.00166 | < 1e-05 | 6020
B3 | 0.00139 | 2.33e-05 | 16800
B4 | 0.00778 | 5.19e-05 | 6670
B5 | < 0.000355 | < 1e-05 | 28200
B6 | 0.00124 | 1.18e-05 | 9480
B7 | < 0.00118 | < 1e-05 | 8440
B8 | 0.00213 | 1.32e-05 | 6230
B9 | 0.00499 | 3.76e-05 | 7550
B10 | < 0.00161 | < 1e-05 | 6210
B11 | 0.00381 | 5.38e-05 | 14100
B12 | < 0.00159 | < 1e-05 | 6280
B13 | < 0.00132 | < 1e-05 | 7580
B14 | 0.00796 | 0.000141 | 17700
B15 | 0.00925 | 7.95e-05 | 8600
B16 | 0.0138 | 0.000129 | 9280
B17 | < 0.000554 | < 1e-05 | 18100
B18 | 0.0123 | 8.88e-05 | 7200
B19 | 0.00783 | 6.3e-05 | 8040
B20 | 0.00224 | 1.56e-05 | 6960
B21 | < 0.00154 | < 1e-05 | 6510
B22 | 0.009 | 6.35e-05 | 7060
B23 | 0.0136 | 0.000124 | 9060
B24 | 0.00501 | 0.000155 | 30900
B25 | < 0.000513 | < 1e-05 | 19500
B26 | < 0.00127 | < 1e-05 | 7880

target: T2, mouse programmed cell death protein 1 Fc fusion protein (mPD-1-Fc), mPD-1 C60S (aa 25-167) (Mus musculus, UniProt Q02242, stabilised); assay: as above; conditions: one partner purified
T2 construct: not cleaved; source: Expi293F, purified (Protein A, SEC; dimeric fraction); not shown: Fc (human), C-terminal, kept
How it was run: as §1

Binder | Kd [µM] | koff [s⁻¹] | kon [M⁻¹ s⁻¹]
B1 | 0.6 | 0.149 | 247000
B2 | 0.172 | 0.0046 | 26800
B3 | 0.0159 | 0.0003 | 18900
B4 | 0.0606 | 0.000824 | 13600
B5 | 0.00179 | 3.62e-05 | 20200
B6 | 0.0194 | 0.000259 | 13400
B7 | 0.187 | 0.00628 | 33500
B8 | 0.0247 | 0.000274 | 11100
B9 | 0.0228 | 0.000384 | 16800
B10 | 0.0266 | 0.000225 | 8470
B11 | 0.00848 | 0.000121 | 14200
B12 | 0.0459 | 0.00105 | 22900
B13 | 0.0474 | 0.00142 | 30100
B14 | 1.02 | 0.0615 | 60300
B15 | 0.00831 | 9.77e-05 | 11800
B16 | 0.00999 | 0.000147 | 14700
B17 | 0.0198 | 0.000491 | 24800
B18 | 0.0232 | 0.000324 | 13900
B19 | 0.0301 | 0.000479 | 15900
B20 | < 0.00106 | < 1e-05 | 9460
B21 | 0.0036 | 3.39e-05 | 9410
B22 | < 0.00108 | < 1e-05 | 9270
B23 | 0.0956 | 0.00392 | 41000
B24 | 0.576 | 0.0369 | 63900
B25 | 0.0898 | 0.00349 | 38900
B26 | 0.094 | 0.00411 | 43700
